The text below walks through data of patent US20140162285A1, “Methods of Modulating Vesicular Trafficking” (The General Hospital Corporation, priority 2009, published 2014).

“Also recorded” adds a separate entry of the source. Ends that are not written are not given here. * marks the point of attachment. FITC = O=C1OC2(c3ccc(O)cc3Oc3cc(O)ccc32)c2ccc(NC(=S)*)cc21; Biotin = O=C1N[C@H]2[C@H](CS[C@H]2CCCCC(=O)*)N1; βAla = NCCC(=O)O

One experiment has as its target T1, PH-domain of ARNO (Homo sapiens, UniProt Q99418).
T1 construct: iv) 253-378aa, plekstrin-homology (PH) domain; made in house; host or cells: E. coli BL21(DE3)
T1 sequence (Q99418 253-378): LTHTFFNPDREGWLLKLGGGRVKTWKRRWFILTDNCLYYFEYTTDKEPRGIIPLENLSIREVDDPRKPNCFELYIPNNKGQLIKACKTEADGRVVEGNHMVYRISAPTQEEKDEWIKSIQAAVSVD
The experiment is described as follows: a2N-derived peptide pull-down with GST-PH domain. The format is binding. The method, then:
(§1) FIGS. 5A-C are a set of three images of Western blots showing the identification of interaction motif of a2N that is involved in specific binding with the Sec7 domain of ARNO. 5A, The catalytic Sec7 domain of ARNO interacts with two a2N-derived peptides, a2N-01 and a2N-03, in pull-down experiments. The peptide pull-down assay was performed with six a2N-derived interaction peptides immobilized on streptavidin-beads and incubated with purified recombinant GST-only or GST-Sec7 domain. Interacting complexes were eluted and analyzed by Western blotting using monoclonal anti-GST antibodies as described below. The loading controls for GST-only (lane 1) or GST-Sec7 (lane 2) are shown. […] The peptide pull-down assay was performed with peptides a2N-01 and a2N-03 immobilized on streptavidin-beads and incubated with purified recombinant GST-PH domain (5B) or GST-PB domain (5C). Interacting complexes were eluted and analyzed by Western blotting using monoclonal anti-GST antibodies. […]
(§2) These a2N-derived peptides were immobilized by an N-terminal biotin-tag, which ensured the same efficiency and equivalent binding to streptavidin-agarose beads. […] After washing beads four times in ice-cold binding buffer, the interacting complexes were eluted by boiling in SDS-PAGE sample buffer for 10 min at 95° C., resolved by SDS-PAGE and analyzed by Western blotting using monoclonal anti-GST antibody. […]

Another experiment concerns the target T2, PB-domain of ARNO (Homo sapiens, UniProt Q99418).
T2 construct: v) 379-400aa, polybasic (PB) domain; made in house; host or cells: E. coli BL21(DE3)
Briefly: a2N-derived peptide pull-down with GST-PB domain. Type of experiment: binding. The procedure:
as §1, §2

The target in a further experiment is T3, GST-ARNO(wt) (Homo sapiens, UniProt Q99418).
T3 construct: i) 1-400aa, full length ARNO(wt); made in house; host or cells: E. coli BL21(DE3)
T3 sequence (Q99418 1-400): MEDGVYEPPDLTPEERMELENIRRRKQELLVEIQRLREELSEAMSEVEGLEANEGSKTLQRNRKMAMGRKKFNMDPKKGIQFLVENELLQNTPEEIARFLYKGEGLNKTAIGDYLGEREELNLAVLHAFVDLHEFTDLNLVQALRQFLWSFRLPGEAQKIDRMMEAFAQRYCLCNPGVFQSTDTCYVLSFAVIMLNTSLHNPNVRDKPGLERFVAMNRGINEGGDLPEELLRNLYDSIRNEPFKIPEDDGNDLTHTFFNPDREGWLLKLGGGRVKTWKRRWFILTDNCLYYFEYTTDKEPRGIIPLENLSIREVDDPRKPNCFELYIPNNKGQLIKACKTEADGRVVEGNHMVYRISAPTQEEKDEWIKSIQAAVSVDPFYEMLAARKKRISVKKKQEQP
Briefly: a2N-derived peptide pull-down assay with GST-ARNO(wt). The format is binding. Details: key to interaction with ARNO (asterisk mark in Table 1): The interacting peptides are indicated in bold with an asterisk (*). The procedure: FIG. 2A is an image of a Western blot showing the results of an a2N-derived peptide pull-down assay. The indicated a2N-derived peptides were immobilized on streptavidin-beads and incubated with purified recombinant GST-ARNO(wt). Interacting complexes were eluted and analyzed by Western blotting using monoclonal anti-GST antibodies.
FIG. 2B is an image of a Western blot showing the results of a pull-down assay with selected a2N-derived interacting peptides incubated with either GST (negative control) or GST-ARNO(wt). The first two lanes show the patterns obtained when either GST-only (lane 1) or GST-ARNO(wt) (lane 2) were loaded onto the gel.
Peptides were synthesized, purified by HPLC and analyzed by mass spectrometry in the MGH Peptide/Protein Core Facility. All a2N-derived peptides were synthesized with a biotin-tag on the N-terminus for immobilization on streptavidin-agarose beads and with an additional C-terminal cysteine residue for immobilization on beads using sulfhydryl-specific crosslinkers. A peptide corresponding to the PB-domain of ARNO was synthesized containing either a non-phosphorylated or a phosphorylated Ser392 residue. Peptide stock solutions were prepared in DMSO at 5 mM concentration and stored at −20° C. […]

For another experiment, the target named is T4, Sec7-domain of ARNO (Homo sapiens, UniProt Q99418).
T4 construct: iii) 61-252aa, Sec7 domain; GST (N, cleaved yes); made in house; host or cells: E. coli BL21(DE3)
T4 sequence (Q99418 61-252): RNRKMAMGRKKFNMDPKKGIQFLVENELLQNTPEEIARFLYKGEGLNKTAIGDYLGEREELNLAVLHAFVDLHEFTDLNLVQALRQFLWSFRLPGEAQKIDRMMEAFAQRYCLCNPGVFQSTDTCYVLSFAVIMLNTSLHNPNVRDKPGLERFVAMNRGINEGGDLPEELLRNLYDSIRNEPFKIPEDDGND
The experiment is described as follows: a2N-derived peptide pull-down with GST-Sec7 domain. To be noted: GST-Sec7-6His. Type of experiment: binding. The procedure: as §1
These a2N-derived peptides were immobilized by an N-terminal biotin-tag, which ensured the same efficiency and equivalent binding to streptavidin-agarose beads. […] After washing beads four times in ice-cold binding buffer, the interacting complexes were eluted by boiling in SDS-PAGE sample buffer for 10 min at 95° C., resolved by SDS-PAGE and analyzed by Western blotting using monoclonal anti-GST antibody.

Experiment [1] has as its target Sec7-6His recombinant protein (human) (UniProt Q99418). The experiment is described as follows: calculated from the SPR KD (deltaG = RT ln KD).
The target is the same in experiment [2]. Briefly: SPR (BIAcore T100), biotinylated a2N-01 captured on neutravidin, Sec7-6His as analyte, 1:1 fit.
Another experiment concerns the target T5, GST-only (UniProt P08515 1-218 = GST).
T5 construct: Control bait/prey in pull-down assays; also called GST (negative control)
The experiment is described as follows: peptide pull-down: biotinylated peptide on streptavidin beads, GST-only in solution, Western blot with anti-GST antibody.

In a further experiment the target is T6, recombinant ARNO (human, UniProt Q99418 1-400, limits assumed).
T6 sequence (looked up): T3 sequence (Q99418 1-400)
The experiment is described as follows: cell-based or functional assay.

T5 sequence (P08515 whole entry): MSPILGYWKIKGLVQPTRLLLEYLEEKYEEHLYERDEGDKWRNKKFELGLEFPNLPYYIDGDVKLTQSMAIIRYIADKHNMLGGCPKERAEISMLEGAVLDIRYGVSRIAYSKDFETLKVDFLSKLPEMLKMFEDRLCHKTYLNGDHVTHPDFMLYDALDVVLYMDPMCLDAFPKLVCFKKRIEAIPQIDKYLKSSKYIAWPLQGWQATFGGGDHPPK

Turning to “Bio-VQFRDLNQNVSSFQR-Cys (VQFRDLNQNVSSFQRC) [a2N-03, AA 35-49 of a2N]”, the “interaction with PH-domain of ARNO” value in the experiment with PH-domain of ARNO is “interacts equally well”. Further, the “interaction with PB-domain of ARNO” value with PB-domain of ARNO is “interacts equally well”. Besides, the “interaction of a2N-derived peptide with GST-ARNO(wt) in pull-down” value in the experiment with GST-ARNO(wt) (Western blot anti-GST, GST-only as control) is “specific interaction; also recorded: capable of interaction with ARNO”. In addition, the “interaction with ARNO (asterisk mark in Table 1)” value with GST-ARNO(wt) (biotin-tagged peptides on streptavidin beads) is given as “Bio-VQFRDLNQNVSSFQR-Cys *”. Further, the “interaction with Sec7-domain of ARNO” value in the experiment with Sec7-domain of ARNO is on record as “interacts”.

B1: a2N-01 (peptide)
peptide: Biotin-MGSLFRSESMCLAQLFLC
modifications: cysteine pairing not given here
notes: Synthetic peptide from the mouse V-ATPase a2-subunit N-terminal tail; Bio- at N-terminus, extra Cys at C-terminus; also called a2N1-17; biotinylated a2N-01 peptide
As to B1, the free energy of binding in experiment [1] was -8.81 kcal/mol. In experiment [2], the Kd is 344 nM, the koff was 0.00086 s⁻¹ and the kon came to 2500 M⁻¹ s⁻¹. The binding result with GST-only is on record as “no binding”.

B2: FITC-a2N-01-TAT (peptide)
peptide: {FITC-βAla}-MGSLFRSESMCLAQLFLYGRKKRRQRRR
In the case of B2, the “IC50 of inhibition of ARNO's GEF activity (radiolabel GDP/GTP-exchange assay, 5% PIP2 vesicles)” value with recombinant ARNO was approximately 700 nM.
